Earlier results as cited in PMC9106955.

Target: GLP-1R N-terminal domain (UniProt P43220)
UniProt P43220, sequence (P43220 24-145): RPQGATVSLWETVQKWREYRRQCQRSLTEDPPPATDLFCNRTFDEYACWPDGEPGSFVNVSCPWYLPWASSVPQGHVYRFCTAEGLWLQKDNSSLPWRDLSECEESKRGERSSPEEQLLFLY

For Exendin-4 (from UniProt P26349), the Kd is given as 6 nM.
